# Data from IntAct's records for PubMed 15582318.
# B1: Telethonin (Homo sapiens), O15273 (parent)
# chain: MATSELSCEVSEENCERREAFWAEWKDLTLSTRPEEGCSLHEEDTQRHETYHQQGQCQVLVQRSPWLMMRMGILGRGLQEYQLPYQRVLPLPIFTPAKMGATKEEREDTPIQLQELLALETALGGQCVDRQEVAEITKQLPPVVPVSKPGALRRSLSRSMSQEAQRG
# B2: Telethonin (Homo sapiens), O15273 (parent)
# chain: B1 chain
# partner: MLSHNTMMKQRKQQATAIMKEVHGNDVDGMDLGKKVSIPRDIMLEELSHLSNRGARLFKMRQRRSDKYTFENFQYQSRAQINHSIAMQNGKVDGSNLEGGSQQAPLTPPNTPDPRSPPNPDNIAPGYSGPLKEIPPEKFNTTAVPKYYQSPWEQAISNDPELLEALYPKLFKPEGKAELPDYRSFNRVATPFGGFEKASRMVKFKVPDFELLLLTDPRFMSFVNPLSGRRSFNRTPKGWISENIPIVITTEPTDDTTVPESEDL
# Variants of: B1
# Conditions: with titin_human TTN
row,Variant,effect of a mutation on the interaction
1,MATSELSCEVSEENCERREAFWAEWKDLTLSTRPEEGCSLHEEDTQRHETYHQQGQCQVLVQRSPWLMMRMGILGRGLQEYQLPYQRVLPLPIFTPAKMGATKEEREDTPIQLQELLALETALGGQCVDRQEVAEITKQLPPVVPVSKPGALHRSLSRSMSQEAQRG [R153H],increasing interaction strength
2,MATSELSCEVSEENCERREAFWAEWKDLTLSTRPEEGCSLHEEDTQRHETYHQQGQCQVLVQRSPWLMMRMGILGRGLQEYQLPYQQVLPLPIFTPAKMGATKEEREDTPIQLQELLALETALGGQCVDRQEVAEITKQLPPVVPVSKPGALRRSLSRSMSQEAQRG [R87Q],decreasing interaction strength
3,MATSELSCEVSEENCERREAFWAEWKDLTLSTRPEEGCSLHEEDTQRHETYHQQGQCQVLVQRSPWLMMRMGILGRGLQEYQLPYQRVLPLPIFTPAKMGATKEEREDTPIQLQELLALETALGGQCVDRQQVAEITKQLPPVVPVSKPGALRRSLSRSMSQEAQRG [E132Q],decreasing interaction strength
4,MATSELSCEVSEENCERREAFWAEWKDLTLSTRPEEGCSLHEEDTQRHETYHQQGQCQVLVQRSPWLMMRMGILGRGLQEYQLPYQRVLPLPIFTPAKMGATKEEREDTPIQLQELLALETALGGQCVDRQEVAEIIKQLPPVVPVSKPGALRRSLSRSMSQEAQRG [T137I],increasing interaction strength

# Variants of: B1
# Conditions: with csrp3_human CSRP3, P50461
# Chain of csrp3_human CSRP3, P50461 (P50461 whole entry): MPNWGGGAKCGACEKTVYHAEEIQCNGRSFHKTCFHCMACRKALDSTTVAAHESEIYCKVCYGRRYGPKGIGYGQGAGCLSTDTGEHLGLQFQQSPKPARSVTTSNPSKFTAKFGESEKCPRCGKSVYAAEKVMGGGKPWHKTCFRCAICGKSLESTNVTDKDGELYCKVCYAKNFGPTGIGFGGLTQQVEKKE
row,Variant,effect of a mutation on the interaction
1,MATSELSCEVSEENCERREAFWAEWKDLTLSTRPEEGCSLHEEDTQRHETYHQQGQCQVLVQRSPWLMMRMGILGRGLQEYQLPYQQVLPLPIFTPAKMGATKEEREDTPIQLQELLALETALGGQCVDRQEVAEITKQLPPVVPVSKPGALRRSLSRSMSQEAQRG [R87Q],decreasing interaction strength
2,MATSELSCEVSEENCERREAFWAEWKDLTLSTRPEEGCSLHEEDTQRHETYHQQGQCQVLVQRSPWLMMRMGILGRGLQEYQLPYQRVLPLPIFTPAKMGATKEEREDTPIQLQELLALETALGGQCVDRQQVAEITKQLPPVVPVSKPGALRRSLSRSMSQEAQRG [E132Q],decreasing interaction strength

# Variants of: B2
# Conditions: with myoz2_human MYOZ2, Q9NPC6
row,Variant,effect of a mutation on the interaction
1,MATSELSCEVSEENCERREAFWAEWKDLTLSTRPEEGCSLHEEDTQRHETYHQQGQCQVLVQRSPWLMMRMGILGRGLQEYQLPYQRVLPLPIFTPAKMGATKEEREDTPIQLQELLALETALGGQCVDRQEVAEIIKQLPPVVPVSKPGALRRSLSRSMSQEAQRG [T137I],increasing interaction strength
2,MATSELSCEVSEENCERREAFWAEWKDLTLSTRPEEGCSLHEEDTQRHETYHQQGQCQVLVQRSPWLMMRMGILGRGLQEYQLPYQRVLPLPIFTPAKMGATKEEREDTPIQLQELLALETALGGQCVDRQQVAEITKQLPPVVPVSKPGALRRSLSRSMSQEAQRG [E132Q],decreasing interaction strength
3,MATSELSCEVSEENCERREAFWAEWKDLTLSTRPEEGCSLHEEDTQRHETYHQQGQCQVLVQRSPWLMMRMGILGRGLQEYQLPYQQVLPLPIFTPAKMGATKEEREDTPIQLQELLALETALGGQCVDRQEVAEITKQLPPVVPVSKPGALRRSLSRSMSQEAQRG [R87Q],decreasing interaction strength
4,MATSELSCEVSEENCERREAFWAEWKDLTLSTRPEEGCSLHEEDTQRHETYHQQGQCQVLVQRSPWLMMRMGILGRGLQEYQLPYQRVLPLPIFTPAKMGATKEEREDTPIQLQELLALETALGGQCVDRQEVAEITKQLPPVVPVSKPGALHRSLSRSMSQEAQRG [R153H],increasing interaction strength
